According to patent US20110229406A1:

Biological target: HER-3 (human, on cells) (human) (UniProt P21860)
Assay: indirect FACS Scatchard analysis on cells

U1-46 (antibody)
Kd: 13.8 nM
